Reference: a protein production outcome set (Wang et al. 2014)

Assay: label from the status in PepcDB records
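Also: failed if final PepcDB status was selected cloned or expressed and not failed if soluble or beyond.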

Row | Sequence | protein production
1 | MAGAITLACTIRFEANAEHVYLSSGTKQTVYHYPFPMSTIHITLNGERKEVPAGSTVSELLVIADADRQPVAVVVNEHIVRPDQRDSYILQERDQVEILVFAGGGLEHHHHHH | not failed
2 | MEKYILSIDQGTTSSRAILFNQKGEIAGVAQREFKQYFPQSGWVEHDANEIWTSVLAVMTEVINENDVRADQIAGIGITNQRETTVVWDKHTGRPIYHAIVWQSRQTQSICSELKQQGYEQTFRDKTGLLLDPYFAGTKVKWILDNVEGAREKAENGDLLFGTIDTWLVWKLSGKAAHITDYSNASRTLMFNIHDLEWDDELLELLTVPKNMLPEVKASSEVYGKTIDYHFYGQEVPIAGVAGDQQAALFGQACFERGDVKNTYGTGGFMLMNTGDKAVKSESGLLTTIAYGIDGKVNYALEGSIFVSGSAIQWLRDGLRMINSAPQSESYATRVDSTEGVYVVPAFVGLGTPYWDSEARGAIFGLTRGTEKEHFIRATLESLCYQTRDVMEAMSKDSGIDVQSLRVDGGAVKNNFIMQFQADIVNTSVERPEIQETTALGAAFLAGLAVGFWESKDDIAKNWKLEEKFDPKMDEGEREKLYRGWKKAVEATQVFKTE | failed
3 | SGESIPLAAPVPVEQAVLETFFSHLGIFSYDKAKDNVEKEREANKSAGGSWLSLLAALAHLAAAEKVYHSLTYLGQKLGGQSFFSRKDSIRTIYTSLHNELKKVVAGRGAPGGTAPHVEELLPHLSEQLCFFVQARMEIADFYEKMYALSTQKFINTEELVSTLDTILRKYSSRFHHPILSPLESSFQLEVGVLSHLLKAQAQISEWKFLPSLVTLHNAHTKLQSWGQTFEKQRETKKHLFGGQSQKAVQPPHLFLWLMKLKTMLLAKFSFYFHEALSRQTTASEMKALTAKANPDLFGKISSFIRKYDAANVSLIFDNRGSESFQGHGYHHPHSYREAPKGVDQYPAVVSLPSDRPVMHWPNVIMIMTDRASDLNSLEKVVHFYDDKVQSTYFLTRPEPHFTIVVIFESKKSERDSHFISFLNELSLALKNPKVFASLKPGSKG | not failed
4 | MKKGIFTALLFTVIVALYSLHLANGKCVYKSNISSLLLENIEALAADEDGSDDGEVVGGKIRCIDVGSLDCPLTHEKVKYIVRGYSL | failed
5 | MGDTKVETISRLAQWRIENFGPCSFKKSDPFKVGIWNWHLSIERNRYLSVRLFPELSRVSKEQPPVAKFVLRVSNVGPNRRFYISPVYEKLLRTTDDCVWHVDSSFHGRFTIDVEFLDLKICPVNGGEASPVWPTDATMQSISTQTTLKCLSRMLEESILTDVIIHTADGTLSAHKAILSASSTVFKSMFHHDLMEKESSTIHIDDMSRESCMALLSYLYGNITQEEFWKHRLALLGAANKYDITDLKAACEESLMEDINSSNVLERLQEAWLYQLEKLKKGCLMYLFDFGKIYDVREEISSFFRQADRELMLEMFQEVLSVWKPV | failed
6 | MVGIYIGSTAAAAGKNLACMALGLVLGRDGRSVGYMKPYGQRPRMVDDRTGDIDAMLVQEVLGQNADPEVVTPVVEPANIRAMSLRGGNALERVGAAYTALARGRDVMLVGGTGSLFHTGRARGLDGLALVRRLDLRVVLVERYHPHPEGGGIDHDAILYAADVLGDRLAGVLLNDLPESYQRDAEEVLVPYLAEHGVRVLGLVPHDPLLHAIRASDLAVRLGGRLVCGGKGSQRLVEGFLIGTMQVENFMSHFRRHANTATIVGGDRTDLQLVALEGQCPCLVLTGNMPPDELIRQRSEQHGAPVIVVREDTYTVARKMEEILNSQKLRDLVTIRRGADIVAGALDRAALLAQTGIPKGENR | failed
7 | MAEHGETQADEEEEEQVWSWGAGTDGQLGTTKLQDELLPQLLSLTSLPSISMLACGGAHVIALTSGGKVFTWGRGSSGQLGHGDILNITLPKLVSFFDDSVITQAAAGWSHSGFVSDSGCIFTCGNGSFGQLGHGDTLSLSTPAKVSHFNNDSVKMVACGMRHSLVLFAGNQVCGFGSGKRGQLGFSSDRIKSVNLPCVVSGLKDVEVVRISANGDHSAAISADGQFFSWGRGFCGGPDVHAPQSLPSPLSFREVAVGWNHALLLTVDGEVFKLGSTLNKQPEKQQLQIDSSEALFEKVPDFDGVKVMQIAAGAEHSAAVTENGEVKTWGWGEHGQLGLGNTNDQTSPELVSLGSIDLRTKEIKVYCGSGFTYAVKRKQELSPTSS | failed
8 | MVMPESHIHNIPMEQCVLVALMTFALSYELIAQDLDEGCFYPERHKQIYNAIVELANENQPYDVVMVEQRLKSKNLLHVLGGEQYLKIMLAEAPSSFHSMEPYITQLKKLKAHRQVEWLGQRISSMAQDTTQPDVFAEAENILGQVDNQEQSDQGMSFEAALDMALTEMIEKAEAKDKQQFTGVKFNLKHLDELLGTVQKGHFCVVGGRPGSGKSTLAQMLALDTASSFGKGVLFISAEMDQSTLANRMISALGLIPYHNIHNAELYNGLMKDYADAKAAYQRLPIWIQPKQKPSLSEVRSYARRAKRRYKELGCIIVDYLQLLRDPSKKDRFQEVSSISRELKSMAKEFECPVIALVQLNREAEKGKRPKASDIKESGQIEQDADQIILVNPLTDPEDSTKPMGITELIVVKNRHGKRGAVRVLDYLETCRFRSVEEQAEP | failed
9 | MWIFFRFISGIYLKNFFIIFFSLLGFYCGIDLLLNFKDLPKAANLDLLYVMFLSFSAVPYVLPISLIFALVVSLISMIRANEFVSLYALGLSRNYVILFPFLWALFFCCIYIGLNFTSFAYANDYKRNILKNGTIMNQSGEVFLKFNNNFVYISKINNGQNSAQNIKIFNINDLNLSSFVSAKNAYFEGESWILRDGNITLLPKNYELANDGLKIQDFSELKSLEGFKPKIIEGVASNSDYSISDALESFELFKAQNVNTDALKINLYKFVFTPFFAPFLMLIMYYFFPVIARFFNLAIVTFMAFVVTLMIWGVLFLLTRLSENSVIASEIGIVVPIIILGCLSAYMYYKHR | failed
10 | MDIFLVIGIITGLLAVVVGMIVKGANVAVLLNPAAAIIIIVGTSAAVMNSFPKNEFTNIPKVFKSLMRGKSKEDPVEIINQIVDMAQETRKNGLLSLEGKIHSIDNEFLKTGLEMVVDGVDPQHIAEVLEMEIESTEERHRGGALIFTTAGGAAPTLGVLGAVVGLIGALGNLNDTEKLGHMIAGAFVATLYGIFFGYVICHPFASRLKRKSLEEINVMRIITEGILDIQSGNNPKSIEKKLIGTLSPKQRQSIQSKGE | failed
11 | MSREDELLEKLDECENATAFLQVSNKIINLKLKALLPSVFVQDDLVKEYAVDPLLREDGPLVTTDVVSKLMFAMGKISLQTYADIGLYDQVLEYVVTQPEKIAFTDDVIYDFIKNQAVLSSQQDCFYLESINQLKFSSFESFSQMRYESLIKTVLKLSCEMLIERIEEEINQ | not failed
12 | MAEGSSLALPRVSASLHEPARAFSFRLDEGKSPWVEVVITIGSFPRCPEVTMMWPPPPTFSVFLLLLLSQVPSSRPQSPGTKKLRLVGPANRPEEGRLEVLHQGQWGTVCDDDFALQEATVACRQLGFESALTWAHSAKFGQGEGPIWLDNVRCLGTEDTLDQCGSNGWGVSDCRHSEDVGVVCHPRRQQGYHSEKVSNALGPQGRRLEEVRLKPILASAKRHSPVTEGAVEVRYEGHWRQVCDQGWTMNNSRVVCGMLGFPSQAPVNSHYYRKVWNLKMKDPKSRLNGLTKKNSFWIHRVDCLGTEPHLAKCQVQVAPGRGKLRPACPGGMHAVVNCVAGPHFQRQKPKPKRKESGAEELKVRLRSGAQVGEGRVEVLMNRQWGTVCDHRWNLISASVVCRQLGFGSAREALFGAQLGQGLGPIHLSEVRCRGYEQTIGDCLALEGSQNGCQHANDAAVRCNIPDMGFQNKVRLAGGRNSEEGVVEVQVEVNGVPRWGTVCSDHWGLTEAMVTCRQLGLGFANFAIKDTWYWQGTPEAKEVVMSGVRCSGTEMALQQCQRHGPVHCSHGSGRFSAGVACMNSAPDLVMNAQLVQETAYLEDRPLSMLYCAHEENCLSKSADHMDWPYGHRRLLRFSSQIYNLGRADFRPKAGRHSWIWHQCHRHYHSIEVFTHYDLLTLNGSKVAEGHKASFCLEDTNCPSGVQRRYACANFGEQGVAVGCWDTYRHDIDCQWVDITDVSPGDYIFQVVVNPTNDVAESDFSNNMIRCRCKYDGQRVWLHNCHTGDPYRPNAELSLEQEQRLRNNLI | failed
13 | MEGSSSTIARKTWELENSILTVDSPDSTSDNIFYYDDTSQTRFQQEKPWENDPHYFKRVKISALALLKMVVHARSGGTIEIMGLMQGKTDGDTIIVMDAFALPVEGTETRVNAQDDAYEYMVEYSQTNKLAGRLENVVGWYHSHPGYGCWLSGIDVSTQRLNQQHQEPFLAVVIDPTRTVSAGKVEIGAFRTYSKGYKPPDEPVSEYQTIPLNKIEDFGVHCKQYYSLDVTYFKSSLDSHLLDLLWNKYWVNTLSSSPLLGNGDYVAGQISDLAEKLEQAESHLVQSRFGGVVPSSLHKKKEDESQLTKITRDSAKITVEQVHGLMSQVIKDELFNSMRQSNNKSPTDSSDPDPMITY | failed
14 | MSLSNVQVNSSQRDEDSFIKGVKDCIPTLLGYLSIGIAAGVIQKTAGLSIAEITLMSLILYAGSGQFIAAGMIATSSSLTAIIITIFFVNLRHILLSAALAPYFRHLSPFRNMLVGSLLTDETFGVAISEAAKKKQISERWMHGLNITAYINWLVANLAGAFLAQWISNPEEFGLGFALPAMFIGILILTMLGRSTIKLDIIVAIIAVVIAVGSSFMLSSSMGVIVATIIASTIGMVVEKWK | failed
15 | MITKDVKEQLIQVSGPENFDDSNAGRLVYSYDATPQYQSMPDAVIAPRNTDEISRILTICSEHRVPIVPRGSGTNLCGGTCPTEGGLVLLFKHMNQILEIDEENLTATVQPGVITLDMIRAVESKGLFYPPDPSSMKISTIGGNINENSGGLRGLKYGVTRDYVIGLEVVLANGDIIRTGGKLAKDVAGYDLTRLFVGSEGTLGIVTEAIVKLVPKPETKKTLLALYENIDAAAQTVSDIIAAKIIPATLEFLDQPTLLVIEDYAKIGLPTSAKAVLLIEQDGPFETVERDMEKIEAICKKGDAVSVQTAQTEEEAFALTEARRSALSALARLKPTTILEDATVPRSEIANMVKAINDIAAKYDISICTFGHAGDGNLHPTCTTDIRNKDEMERVEQAFAEIFEKAIELGGTITGEHGVGEMKAPYLEMKLKKEGIDAMKALKAAFDPRNILNPGKMFAKDARKRVVAER | failed
16 | MSTASGITMASMSTYAILGCGSVGHAVAEELVEEGKDVLILDADEGRVEALRDQDLNAQQADICETDVAQTVADRDVVLIMSPDVNANAEAVRNIRESGGEQFIVARADDPVSADDLTELGADVVINPSAVIADSALRALETGELEYKASQLGDVIDGTEERMAILIHRSPDPDSIASAAALRAIAASRDVDADIIYEGEIGHQENRAFVNLLGIELTSNEDVNLDEYDTFALVDVAKGGEPAVESVDIVIDHYEHEHELEHDAAFSDIRPNISATSTILTKYIQELDLNLDQSVATALLYGIRAETLDFKRDTTPADLTAAAYLYPFADHDTLEQVESPSMSPETLDVLAEAIRNREVQGSHLVSNAGFIRDRDALAQAAQHLLNLEGITTTAVFAIADDTIYLAARSKDIRMNIGKVLSDAFGGMGETAGHSTDASVEIPLGIFTGLDTSDDNRDTLLELTEEAVKRKLFEAMGVDSSSSESSNGN | not failed
17 | MSTDTCIKRPTRSELVDRFQKKIRAGEPIIGGGAGTGLSAKSEEAGDIDLIVIYNSGRYRMAGRGSLAGLLAYGNANQIVVDMAREVLPVVRHTPVLAGVNGTDPFMVMSTFLRELKEIGFAGVQNFPTVGLIDGLFRQNLEETGMSYAQEVEMIAEAHKLDLLTTPYVFSPEDAVAMAKAGADILVCHMGLTTGGAIGARSGKSMDDCVSLINECIEAARTIRDDIIILSHGGPIANPEDARFILDSCQGCHGFYGASSMERLPAEEAIRSQTLAFKAIRRQPA | not failed
18 | MVSANTKPLSEFKTGEFVQIEKIQLEGTMKRRLLDLGFIPGATIKVLQRSPLGDPVAYQVSNTTIALRKEESSLIFGVLIGDDFRLEHHHHHH | not failed
19 | MIILGQALYQKDQFAEAAKCLEQAASKLLDTSPTEVEEVDLLIVASQWAGVSNIRQGKTSEGITHLERVANMKEPDDPKSKAHYLDALVLYSSAIFNEGRREEAAKYLRRVVAYDPSFSELLKQCEEDDTIPTSSSSNSTSKTS | failed
